Data taken from patent US9096646B2, “CXCR4 receptor compounds” (priority 2008, dated 2015).
Values joined by “and” are separate entries in the source; they are usually repeats but may differ in a detail not shown here. Identical values can stand only once. Like-named read-outs stand apart in the source and are kept apart here. Peptide text beside a SMILES is read from it. * marks the point of attachment. Palmitoyl = CCCCCCCCCCCCCCCC(=O)*

Key:
[1] = target: T1, CXCR4 (Homo sapiens, UniProt P61073); assay: Chemotaxis assay using SUP B-15 cells; assay type: cell-based; parameters: A similar procedure was followed for chemotaxis using SUP B-15 cells; endogenous in cells; host or cells: SUP B-15 cells; settings: Table 19, i2 loop; SUPB-15 cells; conc 1.0 uM
T1 sequence (P61073 whole entry): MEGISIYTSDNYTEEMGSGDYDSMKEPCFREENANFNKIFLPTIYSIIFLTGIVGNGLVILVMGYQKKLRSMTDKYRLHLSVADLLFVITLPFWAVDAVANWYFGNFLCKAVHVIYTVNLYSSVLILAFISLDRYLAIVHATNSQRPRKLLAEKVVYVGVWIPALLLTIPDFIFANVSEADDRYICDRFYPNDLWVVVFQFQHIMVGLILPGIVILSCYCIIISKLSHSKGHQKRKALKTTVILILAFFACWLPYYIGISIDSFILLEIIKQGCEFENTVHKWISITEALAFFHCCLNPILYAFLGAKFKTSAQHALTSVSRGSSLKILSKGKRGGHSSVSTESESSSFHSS
Excerpt: Chemotaxis assays were utilized to determine the effect of compound on the directed migration of cells in response to chemokine. Cells that express a receptor of interest were placed in the upper chamber of a Transwell chemotaxis plate (Corning) and allowed to migrate through a polycarbonate membrane to a lower chamber containing the appropriate receptor-specific ligand. To test for antagonist or potentiating activity, cells were mixed with the desired concentration of compound prior to addition to the upper chamber. Conversely, agonist activity was determined by adding compound in the bottom chamber only without endogenous chemokine. The effect of compound is quantified by several parameters, including the extent of maximum response, the shift of agonist dose-response curves, and the area under the curve.
To measure the CXCR4-dependent migration of cells, the appropriate concentration of CXCL12 (SDF1a) or test compound was diluted in phenol red-free RMPI-1640/20 mM HEPES/0.5% BSA buffer and placed in the bottom chamber of a transwell apparatus. CCRF-CEM cells, a human T-cell ALL line that endogenously expresses CXCR4, were washed twice in buffer and resuspended at 133,000 cells/ml. A 75 μl sample of this suspension is mixed with the test compound of interest and placed in the upper chamber of a 5-micron transwell apparatus.
To initiate cell migration, the assembled transwell plate was placed in a 37° C., […] incubator for a specified time interval, typically between 30 and 120 minutes. After incubation, the unit was disassembled and the lower chamber placed at −80° C. overnight to facilitate lysis of cells. To quantify migrated cells, plates were thawed at 37° C. in a humidified chamber, and then a sample volume was removed from each well and mixed with an equal volume of CyQuant (Invitrogen) working solution in opaque plates. The fluorescence intensity of each well represents the DNA content and is directly proportional to cell number. Each sample was typically run in duplicate or triplicate and each plate included two separate negative controls. The plate background control, which included no cells in the upper chamber, was subtracted from all values. The negative control had no agonist added in the lower chamber, and served to establish the baseline for random migration. A similar procedure was followed for chemotaxis using SUP B-15 cells.

[2] = target: T1, CXCR4; assay: Chemotaxis assay, effect on SDF1-a (CXCL12) induced migration of CCRF-CEM cells; assay type: cell-based; parameters: a human T-cell ALL line that endogenously expresses CXCR4; endogenous in cells; host or cells: CCRF-CEM (human T-cell ALL line); settings: for activity at 1 µM: CCRF-CEM; for activity at 1 µM / Peak Test Compound / Peak Ratio / AUC (% of vehicle) / Max (% of vehicle): Table 20, i3 loop, CEM cells; for Peak Ratio: peak test compound/peak control
Description: To initiate cell migration, the assembled transwell plate was placed in a 37° C., 0.5% CO2 incubator for a specified time interval, typically between 30 and 120 minutes. After incubation, the unit was disassembled and the lower chamber placed at −80° C. overnight to facilitate lysis of cells. To quantify migrated cells, plates were thawed at 37° C. in a humidified chamber, and then a sample volume was removed from each well and mixed with an equal volume of CyQuant (Invitrogen) working solution in opaque plates. The fluorescence intensity of each well represents the DNA content and is directly proportional to cell number. […] The plate background control, which included no cells in the upper chamber, was subtracted from all values.

[3] = conc 1.0 uM, read-out: AUC (% of vehicle)
[4] = conc 1.0 uM, read-out: Max (% of vehicle)

In the case of 74 (DRYLAIVHATNSQRPRKLL) [Compound 74], the “AUC (% of vehicle)” value [1] is reported as 90.39 % of vehicle and 77.13 % of vehicle, the “Max (% of vehicle)” value [1] is reported as 91.29 % of vehicle and 75.81 % of vehicle and the “Peak Test Comp.” value [1] is reported as 5 nM.
“78 (Palmitoyl-VHATNSQRPRKLLA-NH2; not fully specified) [Compound 78]” was tested, and the “AUC (% of vehicle)” value [1] was 71.85 % of vehicle, the “Max (% of vehicle)” value [1] was 72.31 % of vehicle and the “Peak Test Comp.” value [1] was 5 nM.
With “79 (Palmitoyl-HATNSQRPRKL-NH2; not fully specified) [Compound 79]” the “AUC (% of vehicle)” value [1] was 109.36 % of vehicle, the “Max (% of vehicle)” value [1] was 109.68 % of vehicle and the “Peak Test Comp.” value [1] was 5 nM.
With “80 (Palmitoyl-HATNSQRPRKLLA-NH2; not fully specified) [Compound 80]” the “AUC (% of vehicle)” value [1] was 102.2 % of vehicle, the “Max (% of vehicle)” value [1] was 69.02 % of vehicle and the “Peak Test Comp.” value [1] was 5 nM.
“81 (Palmitoyl-HATNSQRPRKLLAE-NH2; not fully specified) [Compound 81]” was tested, and the “AUC (% of vehicle)” value [1] was 79.85 % of vehicle, the “Max (% of vehicle)” value [1] was 76.46 % of vehicle and the “Peak Test Comp.” value [1] was 5 nM.
“82 (Palmitoyl-HATNSQRPRKLLAEK-NH2; not fully specified) [Compound 82]” was tested, and the “AUC (% of vehicle)” value [1] was 124.56 % of vehicle, the “Max (% of vehicle)” value [1] was 126.31 % of vehicle and the “Peak Test Comp.” value [1] was 1 nM.
With “83 (Palmitoyl-HATNSQRPRKLLAEKV-NH2; not fully specified) [Compound 83]” the “AUC (% of vehicle)” value [1] was 126.36 % of vehicle, the “Max (% of vehicle)” value [1] was 110.06 % of vehicle and the “Peak Test Comp.” value [1] was 5 nM.
For `CCCCCCCCCCCCCCCC(=O)N[C@@H](Cc1cnc[nH]1)C(=O)N[C@@H](CO)C(=O)N[C@@H](CCCCN)C(=O)NCC(=O)N[C@@H](Cc1cnc[nH]1)C(=O)N[C@@H](CCC(N)=O)C(=O)N[C@@H](CCCCN)C(=O)N[C@@H](CCCNC(=N)N)C(=O)N[C@@H](CCCCN)C(=O)N[C@@H](C)C(=O)N[C@@H](CC(C)C)C(=O)N[C@@H](CCCCN)C(=O)N[C@H](C(N)=O)[C@@H](C)O` [Compound 97] (Palmitoyl-HSKGHQKRKALKT-NH2), the activity at 1 µM [2, 3] was 48.9%, the activity at 1 µM [2, 4] was 54.7% and the “Peak Test Compound” value ([2]; conc 1.0 uM) was 1 nM. For the same compound, the “Peak Ratio” value ([2]; conc 1.0 uM) was 0.2.
In the case of `CCCCCCCCCCCCCCCC(=O)N[C@@H](Cc1cnc[nH]1)C(=O)N[C@@H](CO)C(=O)N[C@@H](CCCCN)C(=O)NCC(=O)N[C@@H](Cc1cnc[nH]1)C(=O)N[C@@H](CCC(N)=O)C(=O)N[C@@H](CCCCN)C(=O)N[C@@H](CCCNC(=N)N)C(=O)N[C@@H](CCCCN)C(=O)N[C@@H](C)C(=O)N[C@@H](CC(C)C)C(=O)N[C@@H](CCCCN)C(=O)N[C@H](C(=O)N[C@H](C(=O)N[C@H](C(N)=O)C(C)C)[C@@H](C)O)[C@@H](C)O` [Compound 99] (Palmitoyl-HSKGHQKRKALKTTV-NH2), the activity at 1 µM [2, 3] is reported as 45%, the activity at 1 µM [2, 4] is reported as 64.5% and the “Peak Test Compound” value ([2]; conc 1.0 uM) is reported as 0.2 nM. For the same compound, the “Peak Ratio” value ([2]; conc 1.0 uM) was 0.2.
In the case of `CCCCCCCCCCCCCCCC(=O)N[C@@H](Cc1cnc[nH]1)C(=O)N[C@@H](CO)C(=O)N[C@@H](CCCCN)C(=O)NCC(=O)N[C@@H](Cc1cnc[nH]1)C(=O)N[C@@H](CCC(N)=O)C(=O)N[C@@H](CCCCN)C(=O)N[C@@H](CCCNC(=N)N)C(=O)N[C@@H](CCCCN)C(=O)N[C@@H](C)C(=O)N[C@@H](CC(C)C)C(=O)N[C@@H](CCCCN)C(=O)N[C@H](C(=O)N[C@H](C(=O)N[C@H](C(=O)N[C@H](C(N)=O)[C@@H](C)CC)C(C)C)[C@@H](C)O)[C@@H](C)O` [Compound 100] (Palmitoyl-HSKGHQKRKALKTTVI-NH2), the activity at 1 µM [2, 3] is reported as 49.3%, the activity at 1 µM [2, 4] is reported as 49.8% and the “Peak Test Compound” value ([2]; conc 1.0 uM) is reported as 0.2 nM. For the same compound, the “Peak Ratio” value ([2]; conc 1.0 uM) was 0.04.
For “Pal-KLSHSKGHQKRKALKTTV-amide (Palmitoyl-KLSHSKGHQKRKALKTTV-NH2; SMILES CCCCCCCCCCCCCCCC(=O)N[C@@H](CCCCN)C(=O)N[C@@H](CC(C)C)C(=O)N[C@@H](CO)C(=O)N[C@@H](Cc1c[nH]cn1)C(=O)N[C@@H](CO)C(=O)N[C@@H](CCCCN)C(=O)NCC(=O)N[C@@H](Cc1c[nH]cn1)C(=O)N[C@@H](CCC(N)=O)C(=O)N[C@@H](CCCCN)C(=O)N[C@@H](CCCNC(=N)N)C(=O)N[C@@H](CCCCN)C(=O)N[C@@H](C)C(=O)N[C@@H](CC(C)C)C(=O)N[C@@H](CCCCN)C(=O)N[C@H](C(=O)N[C@H](C(=O)N[C@H](C(N)=O)C(C)C)[C@@H](C)O)[C@@H](C)O) [Compound 90]”, the “AUC (% of vehicle)” value ([2]; conc 0.01 uM) was 171.8 % of vehicle, the “Max (% of vehicle)” value ([2]; conc 0.01 uM) was 156.08 % of vehicle and the “Peak Test Compound” value ([2]; conc 0.01 uM) was 0.16 nM. For the same compound, the “AUC (% of vehicle)” value ([2]; conc 0.03 uM) was 217.53 % of vehicle, the “Max (% of vehicle)” value ([2]; conc 0.03 uM) was 202.16 % of vehicle and the “Peak Test Compound” value ([2]; conc 0.03 uM) was 0.16 nM. The “AUC (% of vehicle)” value ([2]; conc 0.1 uM) was 175.95 % of vehicle, the “Max (% of vehicle)” value ([2]; conc 0.1 uM) was 157.79 % of vehicle and the “Peak Test Compound” value ([2]; conc 0.1 uM) was 0.03 nM. For the same compound, the “AUC (% of vehicle)” value ([2]; conc 0.3 uM) was 129.83 % of vehicle, the “Max (% of vehicle)” value ([2]; conc 0.3 uM) was 113.68 % of vehicle and the “Peak Test Compound” value ([2]; conc 0.3 uM) was 0.16 nM. For the same compound, the “Max (% of vehicle)” value ([2]; conc 1.0 uM) was 131.59 % of vehicle and 76.8 % of vehicle, the “Peak Test Compound” value ([2]; conc 1.0 uM) was 0.16 nM and the “AUC (% of vehicle)” value ([2]; conc 3.0 uM) was 152.75 % of vehicle. The “Max (% of vehicle)” value ([2]; conc 3.0 uM) was 114.49 % of vehicle and the “Peak Test Compound” value ([2]; conc 3.0 uM) was 0.16 nM.
In the case of “Pal-SKLSHSKGHQKRKALKTTVIL-amide (Palmitoyl-SKLSHSKGHQKRKALKTTVIL-NH2; SMILES CCCCCCCCCCCCCCCC(=O)N[C@@H](CO)C(=O)N[C@@H](CCCCN)C(=O)N[C@@H](CC(C)C)C(=O)N[C@@H](CO)C(=O)N[C@@H](Cc1c[nH]cn1)C(=O)N[C@@H](CO)C(=O)N[C@@H](CCCCN)C(=O)NCC(=O)N[C@@H](Cc1c[nH]cn1)C(=O)N[C@@H](CCC(N)=O)C(=O)N[C@@H](CCCCN)C(=O)N[C@@H](CCCNC(=N)N)C(=O)N[C@@H](CCCCN)C(=O)N[C@@H](C)C(=O)N[C@@H](CC(C)C)C(=O)N[C@@H](CCCCN)C(=O)N[C@H](C(=O)N[C@H](C(=O)N[C@H](C(=O)N[C@H](C(=O)N[C@@H](CC(C)C)C(N)=O)[C@@H](C)CC)C(C)C)[C@@H](C)O)[C@@H](C)O) [Compound 88]”, the “positive allosteric modulation of the SDF1-a dependent chemotactic response (RFU)” value ([2]; 30 nM of compound) is reported as “induces a positive SDF1-a mediated chemotactic response”, the “AUC (% of vehicle)” value ([2]; conc 0.01 uM) is reported as 172.33 % of vehicle and the “Max (% of vehicle)” value ([2]; conc 0.01 uM) is reported as 156.08 % of vehicle. The “Peak Test Compound” value ([2]; conc 0.01 uM) was 0.03 nM, the “AUC (% of vehicle)” value ([2]; conc 0.03 uM) was 226.59 % of vehicle and the “Max (% of vehicle)” value ([2]; conc 0.03 uM) was 202.16 % of vehicle. The “Peak Test Compound” value ([2]; conc 0.03 uM) was 0.03 nM, the “AUC (% of vehicle)” value ([2]; conc 0.1 uM) was 183.19 % of vehicle and the “Max (% of vehicle)” value ([2]; conc 0.1 uM) was 157.79 % of vehicle. For the same compound, the “Peak Test Compound” value ([2]; conc 0.1 uM) was 0.03 nM, the “AUC (% of vehicle)” value ([2]; conc 0.3 uM) was 131.2 % of vehicle and the “Max (% of vehicle)” value ([2]; conc 0.3 uM) was 113.68 % of vehicle. For the same compound, the “AUC (% of vehicle)” value ([2]; conc 1.0 uM) was 143.61 % of vehicle, the “Max (% of vehicle)” value ([2]; conc 1.0 uM) was 131.59 % of vehicle and the “Peak Test Compound” value ([2]; conc 1.0 uM) was 0.8 nM. For the same compound, the “AUC (% of vehicle)” value ([2]; conc 3.0 uM) was 116.49 % of vehicle, the “Max (% of vehicle)” value ([2]; conc 3.0 uM) was 114.49 % of vehicle and the “Peak Test Compound” value ([2]; conc 3.0 uM) was 0.8 nM.
